Laboratory results as given in patent US20220213456.

Experiments:
Test in all cases: cleavage_in_vitro
[1] = tested on: T1, OMNI-51 (Bacteroides coagulans); details: TXTL; PAM NRRAAA
T1 sequence: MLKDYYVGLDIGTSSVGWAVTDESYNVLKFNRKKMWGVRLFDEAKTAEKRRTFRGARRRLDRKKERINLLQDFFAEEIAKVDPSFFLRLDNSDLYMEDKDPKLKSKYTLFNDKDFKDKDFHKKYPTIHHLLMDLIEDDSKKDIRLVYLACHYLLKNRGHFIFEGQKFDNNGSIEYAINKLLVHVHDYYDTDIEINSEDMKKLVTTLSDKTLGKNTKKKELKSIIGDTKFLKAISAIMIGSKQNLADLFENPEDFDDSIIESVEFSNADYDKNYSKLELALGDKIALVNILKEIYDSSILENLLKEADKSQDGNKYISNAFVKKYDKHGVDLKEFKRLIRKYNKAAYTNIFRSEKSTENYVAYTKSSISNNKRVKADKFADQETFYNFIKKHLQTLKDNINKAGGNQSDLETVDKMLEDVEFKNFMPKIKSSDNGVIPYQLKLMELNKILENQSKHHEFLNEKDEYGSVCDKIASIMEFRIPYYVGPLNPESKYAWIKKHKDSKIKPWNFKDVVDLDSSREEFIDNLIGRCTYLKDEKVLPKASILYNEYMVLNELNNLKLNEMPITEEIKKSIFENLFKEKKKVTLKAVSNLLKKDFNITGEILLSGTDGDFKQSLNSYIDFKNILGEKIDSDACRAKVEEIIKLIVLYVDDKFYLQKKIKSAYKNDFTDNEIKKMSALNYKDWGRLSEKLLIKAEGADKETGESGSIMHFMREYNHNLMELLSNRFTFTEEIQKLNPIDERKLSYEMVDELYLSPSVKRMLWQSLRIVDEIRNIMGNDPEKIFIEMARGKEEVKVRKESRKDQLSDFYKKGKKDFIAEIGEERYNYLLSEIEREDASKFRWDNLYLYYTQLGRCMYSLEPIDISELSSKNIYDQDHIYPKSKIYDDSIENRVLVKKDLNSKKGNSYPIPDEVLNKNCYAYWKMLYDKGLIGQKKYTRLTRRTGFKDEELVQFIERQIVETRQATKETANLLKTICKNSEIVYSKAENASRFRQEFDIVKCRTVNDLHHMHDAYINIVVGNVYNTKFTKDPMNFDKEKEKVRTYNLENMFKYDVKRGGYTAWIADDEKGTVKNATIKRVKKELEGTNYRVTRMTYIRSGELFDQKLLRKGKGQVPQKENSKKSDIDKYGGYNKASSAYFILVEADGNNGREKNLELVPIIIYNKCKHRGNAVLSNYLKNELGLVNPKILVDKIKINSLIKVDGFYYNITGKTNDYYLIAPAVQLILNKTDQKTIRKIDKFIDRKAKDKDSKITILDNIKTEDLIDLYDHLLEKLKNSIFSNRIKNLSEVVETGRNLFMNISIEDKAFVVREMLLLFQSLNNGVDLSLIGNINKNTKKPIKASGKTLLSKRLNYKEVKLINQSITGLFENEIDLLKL

[2] = tested on: T2, OMNI-34 (Alistipes sp. An54); details: TXTL; PAM NRNNNNAA; sgRNA V1-V3 tested
T2 sequence: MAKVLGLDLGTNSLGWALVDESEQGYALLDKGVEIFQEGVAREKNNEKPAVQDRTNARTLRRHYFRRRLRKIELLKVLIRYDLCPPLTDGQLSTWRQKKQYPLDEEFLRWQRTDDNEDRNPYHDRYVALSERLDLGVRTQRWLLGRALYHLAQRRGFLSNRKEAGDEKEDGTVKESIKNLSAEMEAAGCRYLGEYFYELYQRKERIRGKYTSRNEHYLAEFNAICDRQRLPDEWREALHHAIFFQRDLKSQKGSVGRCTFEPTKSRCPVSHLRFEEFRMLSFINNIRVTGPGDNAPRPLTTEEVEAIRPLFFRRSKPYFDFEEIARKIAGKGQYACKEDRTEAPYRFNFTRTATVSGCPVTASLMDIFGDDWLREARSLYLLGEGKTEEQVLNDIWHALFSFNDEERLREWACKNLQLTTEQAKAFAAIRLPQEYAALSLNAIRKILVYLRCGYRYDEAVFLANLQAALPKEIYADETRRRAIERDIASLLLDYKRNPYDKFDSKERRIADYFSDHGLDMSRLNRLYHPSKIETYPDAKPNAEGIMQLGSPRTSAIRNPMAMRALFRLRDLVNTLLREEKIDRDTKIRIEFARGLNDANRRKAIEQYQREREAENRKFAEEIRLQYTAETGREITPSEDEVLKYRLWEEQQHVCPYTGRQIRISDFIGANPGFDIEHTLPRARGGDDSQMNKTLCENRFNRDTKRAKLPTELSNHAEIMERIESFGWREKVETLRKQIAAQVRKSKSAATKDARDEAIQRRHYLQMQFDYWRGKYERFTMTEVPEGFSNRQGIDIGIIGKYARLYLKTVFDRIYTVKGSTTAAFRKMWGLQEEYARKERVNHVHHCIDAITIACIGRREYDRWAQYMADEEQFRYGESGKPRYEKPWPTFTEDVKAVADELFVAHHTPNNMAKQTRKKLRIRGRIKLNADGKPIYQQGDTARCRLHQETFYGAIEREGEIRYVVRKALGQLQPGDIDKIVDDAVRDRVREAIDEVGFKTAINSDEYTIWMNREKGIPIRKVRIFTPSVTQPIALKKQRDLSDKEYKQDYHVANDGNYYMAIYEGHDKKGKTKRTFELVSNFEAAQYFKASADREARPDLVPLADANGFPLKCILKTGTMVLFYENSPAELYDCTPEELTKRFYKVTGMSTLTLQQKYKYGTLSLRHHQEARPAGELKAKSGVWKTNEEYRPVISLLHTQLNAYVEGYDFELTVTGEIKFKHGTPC

[3] = tested on: T3, OMNI-35 (Bartonella apis); details: TXTL; PAM NRR; V1, V2 tested
T3 sequence: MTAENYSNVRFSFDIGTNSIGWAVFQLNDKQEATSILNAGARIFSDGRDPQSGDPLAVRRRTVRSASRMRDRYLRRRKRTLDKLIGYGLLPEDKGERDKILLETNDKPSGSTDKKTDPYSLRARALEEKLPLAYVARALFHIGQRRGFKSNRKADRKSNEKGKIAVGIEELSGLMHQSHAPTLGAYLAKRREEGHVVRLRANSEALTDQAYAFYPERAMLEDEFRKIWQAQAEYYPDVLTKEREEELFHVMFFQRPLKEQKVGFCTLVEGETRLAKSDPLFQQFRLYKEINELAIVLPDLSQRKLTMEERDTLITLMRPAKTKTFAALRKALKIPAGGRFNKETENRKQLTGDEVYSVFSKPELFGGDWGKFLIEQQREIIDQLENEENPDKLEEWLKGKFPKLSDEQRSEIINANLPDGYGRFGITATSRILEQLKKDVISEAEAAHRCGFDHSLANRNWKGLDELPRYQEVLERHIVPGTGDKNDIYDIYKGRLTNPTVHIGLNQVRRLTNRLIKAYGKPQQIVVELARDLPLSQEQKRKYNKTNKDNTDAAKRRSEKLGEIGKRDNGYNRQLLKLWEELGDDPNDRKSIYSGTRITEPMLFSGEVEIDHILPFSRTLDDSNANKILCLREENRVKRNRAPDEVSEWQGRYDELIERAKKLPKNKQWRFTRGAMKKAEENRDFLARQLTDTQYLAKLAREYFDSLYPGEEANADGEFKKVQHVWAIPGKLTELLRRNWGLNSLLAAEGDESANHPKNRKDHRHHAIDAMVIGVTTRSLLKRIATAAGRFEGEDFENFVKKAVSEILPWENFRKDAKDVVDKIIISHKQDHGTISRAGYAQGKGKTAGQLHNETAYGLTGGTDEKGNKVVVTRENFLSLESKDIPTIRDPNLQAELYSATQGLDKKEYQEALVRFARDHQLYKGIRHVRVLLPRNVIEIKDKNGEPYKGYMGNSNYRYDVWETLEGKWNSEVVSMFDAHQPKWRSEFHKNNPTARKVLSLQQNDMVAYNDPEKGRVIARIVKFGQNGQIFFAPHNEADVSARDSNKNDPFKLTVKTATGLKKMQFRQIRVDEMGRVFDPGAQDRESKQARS

[4] = tested on: T4, OMNI-52 (Butyrivibrio sp. NC3005); details: TXTL; PAM NRRADT
T4 sequence: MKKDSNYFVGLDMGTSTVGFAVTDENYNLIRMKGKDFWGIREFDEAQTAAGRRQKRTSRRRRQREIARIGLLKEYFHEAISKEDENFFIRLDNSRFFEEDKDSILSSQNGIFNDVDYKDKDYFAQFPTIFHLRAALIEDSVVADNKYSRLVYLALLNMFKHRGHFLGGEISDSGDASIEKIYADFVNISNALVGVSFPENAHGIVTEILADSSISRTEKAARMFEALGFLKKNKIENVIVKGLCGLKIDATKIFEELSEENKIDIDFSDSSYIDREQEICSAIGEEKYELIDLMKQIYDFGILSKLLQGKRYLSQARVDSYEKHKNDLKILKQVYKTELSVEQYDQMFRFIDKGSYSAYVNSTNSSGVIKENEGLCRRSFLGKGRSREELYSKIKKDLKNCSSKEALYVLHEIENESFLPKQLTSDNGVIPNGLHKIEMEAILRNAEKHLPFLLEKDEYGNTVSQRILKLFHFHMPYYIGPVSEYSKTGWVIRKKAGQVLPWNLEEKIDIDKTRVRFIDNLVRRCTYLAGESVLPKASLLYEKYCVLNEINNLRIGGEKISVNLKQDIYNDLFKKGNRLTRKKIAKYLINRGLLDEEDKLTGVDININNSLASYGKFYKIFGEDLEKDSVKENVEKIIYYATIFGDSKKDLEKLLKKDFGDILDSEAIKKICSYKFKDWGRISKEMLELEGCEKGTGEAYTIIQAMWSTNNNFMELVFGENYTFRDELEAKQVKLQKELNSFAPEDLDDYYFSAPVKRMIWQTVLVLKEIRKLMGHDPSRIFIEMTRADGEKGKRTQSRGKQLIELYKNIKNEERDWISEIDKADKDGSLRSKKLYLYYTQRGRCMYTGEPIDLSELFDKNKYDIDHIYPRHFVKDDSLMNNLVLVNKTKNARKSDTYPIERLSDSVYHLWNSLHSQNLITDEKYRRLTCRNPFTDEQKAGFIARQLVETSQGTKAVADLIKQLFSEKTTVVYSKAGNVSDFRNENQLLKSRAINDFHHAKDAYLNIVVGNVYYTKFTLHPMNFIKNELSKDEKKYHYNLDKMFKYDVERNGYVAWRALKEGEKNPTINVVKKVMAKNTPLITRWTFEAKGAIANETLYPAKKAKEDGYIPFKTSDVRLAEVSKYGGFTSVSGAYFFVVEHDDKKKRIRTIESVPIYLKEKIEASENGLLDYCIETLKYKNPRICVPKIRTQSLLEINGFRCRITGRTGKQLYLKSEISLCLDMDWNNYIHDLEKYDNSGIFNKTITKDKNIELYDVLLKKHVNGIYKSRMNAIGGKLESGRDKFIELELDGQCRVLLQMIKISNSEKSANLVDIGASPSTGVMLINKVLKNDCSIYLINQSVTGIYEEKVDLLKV

“GGAAGAGCAGAGCCUUGGUCUCGUUUGAGAGUUAUGGAAACAUGACAGAGUUCAAAUAAAAAUUUAUUCAAACCGCCUAUUUAAUUAUAGGCCGCAGAUGUUCUGCACUAUGCUUGCAAGGUUGCAAGCUUUUUU / GGAAGAGCAGAGCCTTGGTCTCNNNNNNNN / NNNNNNNNGAGACCAAGGCTCTGCTCTTCC [OMNI-51 T2 sgRNA V1 ; pbPOS T2 protospacer 8N PAM library]” gave an activity (1-depletion score) [1] of 1.
With “GGAAGAGCAGAGCCUUGGUCUCGUUGUGGUUUGAUGUAGAAAUACAUCUUACCACAAUAAGGCUAUAUGCCGAAGGUUUUCAACCUACCGUCUCCGCGUAUUCCGUGGAGACUUUUUU / GGAAGAGCAGAGCCTTGGTCTCNNNNNNNN / NNNNNNNNGAGACCAAGGCTCTGCTCTTCC [OMNI-34 T2 sgRNA V1 ; pbPOS T2 protospacer 8N PAM library]” the activity (1-depletion score) [2] was 0.82.
Work on “GGAAGAGCAGAGCCUUGGUCUCGUUGCGGCUUGACCGCGAAAGCGGUCUGGCUGUUAACAAGCUAGAUAUGCACCAAAUAAGACAGCUCCUCCGGGGGCUGUUUUUU / GGAAGAGCAGAGCCTTGGTCTCNNNNNNNN / NNNNNNNNGAGACCAAGGCTCTGCTCTTCC [OMNI-35 T2 sgRNA V1 ; pbPOS T2 protospacer 8N PAM library]” yielded an activity (1-depletion score) [3] of 0.97.
For “GGAAGAGCAGAGCCUUGGUCUCGUUUGAGAGCUUUGGAAACAAAGCGAGUGCAAAUAAGGUUUUACCGGAAUCGUCUUUAUUAAGAACCGCAUGGUGCGGAUUAUUUAGAAGCCAUUUAGAUGGCUUCUAUUUU / GGAAGAGCAGAGCCTTGGTCTCNNNNNNNN / NNNNNNNNGAGACCAAGGCTCTGCTCTTCC [OMNI-52 T2 sgRNA V1 ; pbPOS T2 protospacer 8N PAM library]”, the activity (1-depletion score) [4] was 1.
